Experimental data published in US9957535B2, “Methods, reagents and cells for biosynthesizing compounds” (INVISTA North America S.á r.l., priority 2014, dated 2018).

B1: SEQ ID NO 8: Chromobacterium violaceum ω-transaminase (Genbank Accession No. AAQ59697.1), N-terminal HIS tagged (protein, listed as Chromobacterium violaceum)
chain: MQKQRTTSQWRELDAAHHLHPFTDTASLNQAGARVMTRGEGVYLWDSEGNKIIDGMAGLWCVNVGYGRKDFAEAARRQMEELPFYNTFFKTTHPAVVELSSLLAEVTPAGFDRVFYTNSGSESVDTMIRMVRRYWDVQGKPEKKTLIGRWNGYHGSTIGGASLGGMKYMHEQGDLPIPGMAHIEQPWWYKHGKDMTPDEFGVVAARWLEEKILEIGADKVAAFVGEPIQGAGGVIVPPATYWPEIERICRKYDVLLVADEVICGFGRTGEWFGHQHFGFQPDLFTAAKGLSSGYLPIGAVFVGKRVAEGLIAGGDFNHGFTYSGHPVCAAVAHANVAALRDEGIVQRVKDDIGPYMQKRWRETFSRFEHVDDVRGVGMVQAFTLVKNKAKRELFPDFGEIGTLCRDIFFRNNLIMRACGDHIVSAPPLVMTRAEVDEMLAVAERCLEEFEQTLKARGLA
modifications: N-terminal His tag
B2: SEQ ID NO 10: Pseudomonas syringae ω-transaminase (Genbank Accession No. AAY39893.1), N-terminal HIS tagged; b286 says Rhodobacter sphaeroides (protein, listed as Pseudomonas syringae)
chain: MSANNPQTLEWQALSSEHHLAPFSDYKQLKEKGPRIITRAEGVYLWDSEGNKILDGMSGLWCVAIGYGREELADAASKQMRELPYYNLFFQTAHPPVLELAKAISDIAPEGMNHVFFTGSGSEGNDTMLRMVRHYWALKGQPNKKTIISRVNGYHGSTVAGASLGGMTYMHEQGDLPIPGVVHIPQPYWFGEGGDMTPDEFGIWAAEQLEKKILELGVENVGAFIAEPIQGAGGVIVPPDSYWPKIKEILSRYDILFAADEVICGFGRTSEWFGSDFYGLRPDMMTIAKGLTSGYVPMGGLIVRDEIVAVLNEGGDFNHGFTYSGHPVAAAVALENIRILREEKIVERVRSETAPYLQKRLRELSDHPLVGEVRGVGLLGAIELVKDKTTRERYTDKGAGMICRTFCFDNGLIMRAVGDTMIIAPPLVISFAQIDELVEKARTCLDLTLAVLQG
modifications: N-terminal His tag
notes: b286 says Rhodobacter sphaeroides
B3: SEQ ID NO 7: Segniliparus rotundus carboxylate reductase (Genbank Accession No. ADG98140.1), N-terminal HIS tagged (protein, listed as Segniliparus rotundus)
chain: MTQSHTQGPQASAAHSRLARRAAELLATDPQAAATLPDPEVVRQATRPGLRLAERVDAILSGYADRPALGQRSFQTVKDPITGRSSVELLPTFDTITYRELRERATAIASDLAHHPQAPAKPGDFLASIGFISVDYVAIDIAGVFAGLTAVPLQTGATLATLTAITAETAPTLFAASIEHLPTAVDAVLATPSVRRLLVFDYRAGSDEDREAVEAAKRKIADAGSSVLVDVLDEVIARGKSAPKAPLPPATDAGDDSLSLLIYTSGSTGTPKGAMYPERNVAHFWGGVWAAAFDEDAAPPVPAINITFLPLSHVASRLSLMPTLARGGLMHFVAKSDLSTLFEDLKLARPTNLFLVPRVVEMLYQHYQSELDRRGVQDGTREAEAVKDDLRTGLLGGRILTAGFGSAPLSAELAGFIESLLQIHLVDGYGSTEAGPVWRDGYLVKPPVTDYKLIDVPELGYFSTDSPHPRGELAIKTQTILPGYYKRPETTAEVFDEDGFYLTGDVVAQIGPEQFAYVDRRKNVLKLSQGEFVTLAKLEAAYSSSPLVRQLFVYGSSERSYLLAVIVPTPDALKKFGVGEAAKAALGESLQKIARDEGLQSYEVPRDFIIETDPFTVENGLLSDARKSLRPKLKEHYGERLEAMYKELADGQANELRDIRRGVQQRPTLETVRRAAAAMLGASAAEIKPDAHFTDLGGDSLSALTFSNFLHDLFEVDVPVGVIVSAANTLGSVAEHIDAQLAGGRARPTFATVHGKGSTTIKASDLTLDKFIDEQTLEAAKHLPKPADPPRTVLLTGANGWLGRFLALEWLERLAPAGGKLITIVRGKDAAQAKARLDAAYESGDPKLAGHYQDLAATTLEVLAGDFSEPRLGLDEATWNRLADEVDFISHPGALVNHVLPYNQLFGPNVAGVAEIIKLAITTRIKPVTYLSTVAVAAGVEPSALDEDGDIRTVSAERSVDEGYANGYGNSKWGGEVLLREAHDRTGLPVRVFRSDMILAHQKYTGQVNATDQFTRLVQSLLATGLAPKSFYELDAQGNRQRAHYDGIPVDFTAESITTLGGDGLEGYRSYNVFNPHRDGVGLDEFVDWLIEAGHPITRIDDYDQWLSRFETSLRGLPESKRQASVLPLLHAFARPGPAVDGSPFRNTVFRTDVQKAKIGAEHDIPHLGKALVLKYADDIKQLGLL
modifications: N-terminal His tag

How the values were obtained:
Assay type in all cases: biochemical
[1] = ω-transaminase enzyme activity assay, reverse direction (5-aminopentanoate to glutarate semialdehyde), L-alanine formation from pyruvate by RP-HPLC; conditions: cell free extract, 10 mM 5-aminopentanoate, 10 mM pyruvate, pH 7.5, 25° C., 4 h, against empty vector control (FIG. 18)
Description: (§1) A nucleotide sequence encoding an N-terminal His-tag was added to the genes from Chromobacterium violaceum and Rhodobacter sphaeroides encoding the ω-transaminases of SEQ ID NOs: 8 and 10 respectively (see FIG. 10) such that N-terminal HIS tagged ω-transaminases could be produced. Each of the resulting modified genes was cloned into a pET21a expression vector under control of the T7 promoter and each expression vector was transformed into a BL21[DE3] E. coli host. The resulting recombinant E. coli strains were cultivated at 37° C. in a 250 mL shake flask culture containing 50 mL LB media and antibiotic selection pressure, with shaking at 230 rpm. Each culture was induced overnight at 16° C. using 1 mM IPTG.
(§2) The pellet from each induced shake flask culture was harvested via centrifugation. Each pellet was resuspended and lysed via sonication. The cell debris was separated from the supernatant via centrifugation and the cell free extract was used immediately in enzyme activity assays.
Enzyme activity assays in the reverse direction (i.e., 5-aminopentanoate to glutarate semialdehyde) were performed in a buffer composed of a final concentration of 50 mM HEPES buffer (pH=7.5), 10 mM 5-aminopentanoate, 10 mM pyruvate and 100 μM pyridoxyl 5′ phosphate. […] The formation of L-alanine from pyruvate was quantified via RP-HPLC.

[2] = ω-transaminase enzyme activity assay, forward direction (glutarate semialdehyde to 5-aminopentanoate), pyruvate formation by RP-HPLC; conditions: for ω-transaminase acceptance of glutarate semialdehyde, synthesizing 5-aminopentanoate, concluded from reversibility: concluded from confirmed reversibility of the ω-transaminase activity
Description: as §1, §2
Enzyme activity in the forward direction (i.e., glutarate semialdehyde to 5-aminopentanoate) was confirmed for the transaminase of SEQ ID NO 10. Enzyme activity assays were performed in a buffer composed of a final concentration of 50 mM HEPES buffer (pH=7.5), 10 mM glutarate semialdehyde, 10 mM L-alanine and 100 μM pyridoxyl 5′ phosphate. Each enzyme activity assay reaction was initiated by adding a cell free extract of the ω-transaminase gene product or the empty vector control to the assay buffer containing the glutarate semialdehyde and incubated at 25° C. for 4 h, with shaking at 250 rpm. The formation of pyruvate was quantified via RP-HPLC.

[3] = ω-transaminase enzyme activity assay (N5-acetyl-1,5-diaminopentane to N5-acetyl-5-aminopentanal), L-alanine formation by RP-HPLC; conditions: for ω-transaminase activity converting N5-acetyl-1,5-diaminopentane to N5-acetyl-5-aminopentanal (substrate acceptance): cell free extract, 10 mM N5-acetyl-1,5-diaminopentane, 10 mM pyruvate, pH 7.5, 25° C., 4 h, against empty vector control (FIG. 15); for ω-transaminase acceptance of N5-acetyl-5-aminopentanal forming N5-acetyl-1,5-diaminopentane, concluded from reversibility: concluded from reversibility of the ω-transaminase activity (Example 1)
Description: The activity of the N-terminal His-tagged ω-transaminases of SEQ ID NOs: 8, 10-13 (see Example 3, and FIG. 10) for converting N5-acetyl-1,5-diaminopentane to N5-acetyl-5-aminopentanal was assayed using a buffer composed of a final concentration of 50 mM HEPES buffer (pH=7.5), 10 mM N5-acetyl-1,5-diaminopentane, 10 mM pyruvate and 100 μM pyridoxyl 5′ phosphate. Each enzyme activity assay reaction was initiated by adding a cell free extract of the ω-transaminase or the empty vector control to the assay buffer containing the N5-acetyl-1,5-diaminopentane then incubated at 25° C. for 4 h, with shaking at 250 rpm. The formation of L-alanine was quantified via RP-HPLC.

[4] = carboxylate reductase enzyme activity assay (glutarate semialdehyde to pentanedial), NADPH consumption at 340 nm; conditions: purified enzyme enhanced by gene product of sfp, 2 mM glutarate semialdehyde, 1 mM ATP, 1 mM NADPH, pH 7.5, room temperature, 20 min, against empty vector control (FIG. 16)
Description: The N-terminal His-tagged carboxylate reductase of SEQ ID NO 7 (see Example 3 and FIG. 10) was assayed using glutarate semialdehyde as substrate. The enzyme activity assay was performed in triplicate in a buffer composed of a final concentration of 50 mM HEPES buffer (pH=7.5), 2 mM glutarate semialdehyde, 10 mM MgCl2, 1 mM ATP and 1 mM NADPH. The enzyme activity assay reaction was initiated by adding purified carboxylate reductase and phosphopantetheine transferase or the empty vector control to the assay buffer containing the glutarate semialdehyde and then incubated at room temperature for 20 min. The consumption of NADPH was monitored by absorbance at 340 nm.

Row | ω-transaminase activity converting 5-aminopentanoate to glutarate semialdehyde (substrate acceptance) [1] | Molecule | ω-transaminase acceptance of glutarate semialdehyde, synthesizing 5-aminopentanoate, concluded from reversibility [2] | ω-transaminase activity converting N5-acetyl-1,5-diaminopentane to N5-acetyl-5-aminopentanal (substrate acceptance) [3] | ω-transaminase acceptance of N5-acetyl-5-aminopentanal forming N5-acetyl-1,5-diaminopentane, concluded from reversibility [3] | ω-transaminase activity converting glutarate semialdehyde to 5-aminopentanoate (substrate acceptance) ([2]; cell free extract, 10 mM glutarate semialdehyde, 10 mM L-alanine, pH 7.5, 25° C., 4 h, against empty vector control (FIG. 19)) | carboxylate reductase activity converting glutarate semialdehyde to pentanedial (substrate acceptance) [4]
1 | accepted 5-aminopentanote as substrate | B1 | accepted glutarate semialdehyde as substrate and synthesized 5-aminopentanoate | accepted N5-acetyl-1,5-diaminopentane as substrate | accept N5-acetyl-5-aminopentanal as substrate forming N5-acetyl-1,5-diaminopentane |  | 
2 |  | B2 | accepted glutarate semialdehyde as substrate and synthesized 5-aminopentanoate | accepted N5-acetyl-1,5-diaminopentane as substrate | accept N5-acetyl-5-aminopentanal as substrate forming N5-acetyl-1,5-diaminopentane | accepted glutarate semialdehyde as substrate | 
3 |  | B3 |  |  |  |  | accepted glutarate semialdehyde as substrate
